Patent publication US20230218743A1
Where two headings read alike, the source gives them in different places.

What was measured:
[1] = biological target: RBD-SD1 (SARS-CoV-2), P0DTC2; conditions: remark: other sources report otherwise
[2] = biological target: RBD-SD1 (SARS-CoV-2), P0DTC2; assay: epitope analysis, FIG. 3B; exponent as printed; conditions: remark: other sources report otherwise

B1: N-612-004 (antibody, V domains shown)
VH: EVQLVESGGGLVQPGGSLRLSCAASGFTFSSYYMHWVRQAPGKGLEWVSAISGSGGYTYYADSVKGRFTISRDNSKNTLYLQMNSLRAEDTAVYYCARDRDHAYDWGFDVWGQGTLVTVSS
VL: DIQMTQSPSSLSASVGDRVTITCQASQDISNYLNWYQQKPGKAPKLLIYDASNLETGVPSRFSGSGSGTDFTFTISSLQPEDIATYYCQQWADWPLTFGQGTKVEIK
Kd [1]: 2.95 nM | koff [1]: 0.000937 s⁻¹ | kon [1]: 317000 M⁻¹ s⁻¹ | koff [2]: 0.00034 s⁻¹
